Values of other authors, collected in paper PMC5012295.

Biological target: Complement C4b (Homo sapiens) (UniProt P0C0L4)
Assay: AlphaScreen

UniProt P0C0L4, sequence (P0C0L4 20-675, chain 1 of 2): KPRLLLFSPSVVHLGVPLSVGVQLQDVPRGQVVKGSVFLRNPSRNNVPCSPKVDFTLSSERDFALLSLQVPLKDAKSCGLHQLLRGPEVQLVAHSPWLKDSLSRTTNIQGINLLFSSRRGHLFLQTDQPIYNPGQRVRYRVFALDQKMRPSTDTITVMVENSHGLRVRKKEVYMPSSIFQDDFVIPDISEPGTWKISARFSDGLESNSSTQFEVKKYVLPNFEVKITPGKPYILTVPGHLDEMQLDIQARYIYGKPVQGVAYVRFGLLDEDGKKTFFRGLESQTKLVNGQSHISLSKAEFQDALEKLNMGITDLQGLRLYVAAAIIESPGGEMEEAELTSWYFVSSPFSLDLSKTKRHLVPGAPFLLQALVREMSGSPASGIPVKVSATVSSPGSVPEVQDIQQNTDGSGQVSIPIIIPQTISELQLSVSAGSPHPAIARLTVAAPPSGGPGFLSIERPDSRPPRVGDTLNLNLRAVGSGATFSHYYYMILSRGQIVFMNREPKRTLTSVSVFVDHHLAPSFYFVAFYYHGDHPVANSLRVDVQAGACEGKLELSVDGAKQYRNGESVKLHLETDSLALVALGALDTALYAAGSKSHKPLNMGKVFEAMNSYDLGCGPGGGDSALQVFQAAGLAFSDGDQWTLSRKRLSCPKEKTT
UniProt P0C0L4, sequence (P0C0L4 20-675, chain 2 of 2): as the sequence (P0C0L4 20-675, chain 1 of 2) above

Row | Substance | Kd
1 | Eap34 domains 3-4 (from UniProt Q99QS1) | 525 nM
2 | Eap (from UniProt Q99QS1) | 185 nM
